Data on two molecules can be found in article PMC9555685, “A single transcription factor facilitates an insect host combating Bacillus thuringiensis infection while maintaining fitness”.

Conditions in all cases: protein: recombinant; tags: N-terminal His; label: 5'-biotin
The target of data set [1] is T1, FTZ-F1 T288A(-P) (non-phosphorylated form) (Plutella xylostella, UniProt A0ABQ7R810 1-557, T288A). Put plainly: EMSA; 20 fmol probe; EMSA: 25 °C, 30 min, 20 fmol biotin probe, LightShift Chemiluminescent EMSA Kit; buffer, salt and pH not stated. (Mobility shift assays separate free from complexed probe on a gel.)
T1 sequence (A0ABQ7R810 entry or part of it T288A | T288A T288A): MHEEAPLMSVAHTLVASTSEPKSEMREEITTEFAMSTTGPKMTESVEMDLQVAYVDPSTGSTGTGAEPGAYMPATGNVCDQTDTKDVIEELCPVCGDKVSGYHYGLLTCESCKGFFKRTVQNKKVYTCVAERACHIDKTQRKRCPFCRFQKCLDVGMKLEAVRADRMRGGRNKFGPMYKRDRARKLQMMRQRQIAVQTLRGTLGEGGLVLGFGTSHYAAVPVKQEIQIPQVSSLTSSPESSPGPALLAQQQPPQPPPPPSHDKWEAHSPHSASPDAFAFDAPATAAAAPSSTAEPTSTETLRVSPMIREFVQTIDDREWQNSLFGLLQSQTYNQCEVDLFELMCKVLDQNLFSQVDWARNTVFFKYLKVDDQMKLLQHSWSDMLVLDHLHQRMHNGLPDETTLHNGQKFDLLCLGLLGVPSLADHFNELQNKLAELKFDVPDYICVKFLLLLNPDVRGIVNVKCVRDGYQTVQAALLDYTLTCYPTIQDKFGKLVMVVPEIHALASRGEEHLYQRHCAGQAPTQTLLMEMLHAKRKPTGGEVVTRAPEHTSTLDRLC
The target in data set [2] is T2, FTZ-F1 T288D(P) (phosphomimic) (Plutella xylostella, UniProt A0ABQ7R810 1-557, T288D). Put plainly: EMSA; 20 fmol probe; cold competitor 100 and 500 fmol; EMSA: 25 °C, 30 min, 20 fmol biotin probe, LightShift Chemiluminescent EMSA Kit; buffer, salt and pH not stated.
T2 sequence (A0ABQ7R810 entry or part of it T288D | T288D T288D): as the sequence (A0ABQ7R810 entry or part of it T288A | T288A T288A) above, with A288D counted along it
Data set [3] deals with T2, FTZ-F1 T288D(P) (phosphomimic). Briefly: EMSA; 20 fmol probe; EMSA: 25 °C, 30 min, 20 fmol biotin probe, LightShift Chemiluminescent EMSA Kit; buffer, salt and pH not stated.
Data set [4] addresses T1, FTZ-F1 T288A(-P) (non-phosphorylated …). Briefly: EMSA; 20 fmol probe; cold competitor 100 and 500 fmol; EMSA: 25 °C, 30 min, 20 fmol biotin probe, LightShift Chemiluminescent EMSA Kit; buffer, salt and pH not stated.

B1: FBSP (ABCC1 promoter) (dsDNA)
DNA 1: GTACAGTCAC
DNA 2: GTGACTGTAC
As to B1, the values for the binding result in data set [1] and in data set [2] were “no binding” and “binds”, respectively.

B2: FBS (ABCC2 promoter) (dsDNA)
DNA 1: CTGTCCTGTAA
DNA 2: TTACAGGACAG
Regarding B2, the binding result is listed as “no binding” in data set [3] and “binds” in data set [4].
